# Molecular target: Retinoblastoma protein (Rb), endogenous (UniProt P06400)
# Assay: co-immunoprecipitation (IP GFP, western blot Rb) quantified with image J
# Details: MCF7 cells; 3 independent experiments; parent: est. 32; read off a plot
# UniProt P06400, sequence (P06400 whole entry): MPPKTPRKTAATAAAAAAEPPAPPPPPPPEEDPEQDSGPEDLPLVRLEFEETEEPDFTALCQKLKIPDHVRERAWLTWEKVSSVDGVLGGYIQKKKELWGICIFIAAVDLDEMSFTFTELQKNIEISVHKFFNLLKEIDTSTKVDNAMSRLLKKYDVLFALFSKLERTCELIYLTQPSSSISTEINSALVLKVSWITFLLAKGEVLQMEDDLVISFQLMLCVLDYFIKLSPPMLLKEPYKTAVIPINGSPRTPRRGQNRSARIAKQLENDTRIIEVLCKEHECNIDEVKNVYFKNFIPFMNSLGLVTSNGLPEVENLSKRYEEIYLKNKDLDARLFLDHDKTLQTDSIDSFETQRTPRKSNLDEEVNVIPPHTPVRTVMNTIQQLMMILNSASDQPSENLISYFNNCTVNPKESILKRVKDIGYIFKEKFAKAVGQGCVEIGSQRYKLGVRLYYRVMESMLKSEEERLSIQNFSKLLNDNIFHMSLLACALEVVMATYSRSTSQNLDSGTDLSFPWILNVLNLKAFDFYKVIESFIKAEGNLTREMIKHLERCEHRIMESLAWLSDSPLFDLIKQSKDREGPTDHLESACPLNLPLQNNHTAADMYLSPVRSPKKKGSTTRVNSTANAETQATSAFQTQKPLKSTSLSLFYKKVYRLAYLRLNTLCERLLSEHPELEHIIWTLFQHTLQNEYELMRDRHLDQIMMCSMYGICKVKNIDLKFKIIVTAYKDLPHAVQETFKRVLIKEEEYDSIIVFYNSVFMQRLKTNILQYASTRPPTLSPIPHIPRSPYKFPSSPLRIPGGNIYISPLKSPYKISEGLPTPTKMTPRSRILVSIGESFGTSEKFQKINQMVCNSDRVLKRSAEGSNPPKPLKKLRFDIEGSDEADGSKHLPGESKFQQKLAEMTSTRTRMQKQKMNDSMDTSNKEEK
row,Substance,response (fold pull down)
1,GFP-FoxM1 full length (FL) T596A,38
2,GFP-FoxM1 full length (FL) S715A; S724A,36
3,GFP-FoxM1 full length (FL) S715D; S724D,5.8

# Molecular target: CBP, endogenous (UniProt Q92793)
# Assay: co-immunoprecipitation (IP GFP, western blot CBP) quantified with image J
# Details: MCF7 cells; 3 independent experiments; parent: est. 25; read off a plot
# UniProt Q92793, sequence (Q92793 whole entry): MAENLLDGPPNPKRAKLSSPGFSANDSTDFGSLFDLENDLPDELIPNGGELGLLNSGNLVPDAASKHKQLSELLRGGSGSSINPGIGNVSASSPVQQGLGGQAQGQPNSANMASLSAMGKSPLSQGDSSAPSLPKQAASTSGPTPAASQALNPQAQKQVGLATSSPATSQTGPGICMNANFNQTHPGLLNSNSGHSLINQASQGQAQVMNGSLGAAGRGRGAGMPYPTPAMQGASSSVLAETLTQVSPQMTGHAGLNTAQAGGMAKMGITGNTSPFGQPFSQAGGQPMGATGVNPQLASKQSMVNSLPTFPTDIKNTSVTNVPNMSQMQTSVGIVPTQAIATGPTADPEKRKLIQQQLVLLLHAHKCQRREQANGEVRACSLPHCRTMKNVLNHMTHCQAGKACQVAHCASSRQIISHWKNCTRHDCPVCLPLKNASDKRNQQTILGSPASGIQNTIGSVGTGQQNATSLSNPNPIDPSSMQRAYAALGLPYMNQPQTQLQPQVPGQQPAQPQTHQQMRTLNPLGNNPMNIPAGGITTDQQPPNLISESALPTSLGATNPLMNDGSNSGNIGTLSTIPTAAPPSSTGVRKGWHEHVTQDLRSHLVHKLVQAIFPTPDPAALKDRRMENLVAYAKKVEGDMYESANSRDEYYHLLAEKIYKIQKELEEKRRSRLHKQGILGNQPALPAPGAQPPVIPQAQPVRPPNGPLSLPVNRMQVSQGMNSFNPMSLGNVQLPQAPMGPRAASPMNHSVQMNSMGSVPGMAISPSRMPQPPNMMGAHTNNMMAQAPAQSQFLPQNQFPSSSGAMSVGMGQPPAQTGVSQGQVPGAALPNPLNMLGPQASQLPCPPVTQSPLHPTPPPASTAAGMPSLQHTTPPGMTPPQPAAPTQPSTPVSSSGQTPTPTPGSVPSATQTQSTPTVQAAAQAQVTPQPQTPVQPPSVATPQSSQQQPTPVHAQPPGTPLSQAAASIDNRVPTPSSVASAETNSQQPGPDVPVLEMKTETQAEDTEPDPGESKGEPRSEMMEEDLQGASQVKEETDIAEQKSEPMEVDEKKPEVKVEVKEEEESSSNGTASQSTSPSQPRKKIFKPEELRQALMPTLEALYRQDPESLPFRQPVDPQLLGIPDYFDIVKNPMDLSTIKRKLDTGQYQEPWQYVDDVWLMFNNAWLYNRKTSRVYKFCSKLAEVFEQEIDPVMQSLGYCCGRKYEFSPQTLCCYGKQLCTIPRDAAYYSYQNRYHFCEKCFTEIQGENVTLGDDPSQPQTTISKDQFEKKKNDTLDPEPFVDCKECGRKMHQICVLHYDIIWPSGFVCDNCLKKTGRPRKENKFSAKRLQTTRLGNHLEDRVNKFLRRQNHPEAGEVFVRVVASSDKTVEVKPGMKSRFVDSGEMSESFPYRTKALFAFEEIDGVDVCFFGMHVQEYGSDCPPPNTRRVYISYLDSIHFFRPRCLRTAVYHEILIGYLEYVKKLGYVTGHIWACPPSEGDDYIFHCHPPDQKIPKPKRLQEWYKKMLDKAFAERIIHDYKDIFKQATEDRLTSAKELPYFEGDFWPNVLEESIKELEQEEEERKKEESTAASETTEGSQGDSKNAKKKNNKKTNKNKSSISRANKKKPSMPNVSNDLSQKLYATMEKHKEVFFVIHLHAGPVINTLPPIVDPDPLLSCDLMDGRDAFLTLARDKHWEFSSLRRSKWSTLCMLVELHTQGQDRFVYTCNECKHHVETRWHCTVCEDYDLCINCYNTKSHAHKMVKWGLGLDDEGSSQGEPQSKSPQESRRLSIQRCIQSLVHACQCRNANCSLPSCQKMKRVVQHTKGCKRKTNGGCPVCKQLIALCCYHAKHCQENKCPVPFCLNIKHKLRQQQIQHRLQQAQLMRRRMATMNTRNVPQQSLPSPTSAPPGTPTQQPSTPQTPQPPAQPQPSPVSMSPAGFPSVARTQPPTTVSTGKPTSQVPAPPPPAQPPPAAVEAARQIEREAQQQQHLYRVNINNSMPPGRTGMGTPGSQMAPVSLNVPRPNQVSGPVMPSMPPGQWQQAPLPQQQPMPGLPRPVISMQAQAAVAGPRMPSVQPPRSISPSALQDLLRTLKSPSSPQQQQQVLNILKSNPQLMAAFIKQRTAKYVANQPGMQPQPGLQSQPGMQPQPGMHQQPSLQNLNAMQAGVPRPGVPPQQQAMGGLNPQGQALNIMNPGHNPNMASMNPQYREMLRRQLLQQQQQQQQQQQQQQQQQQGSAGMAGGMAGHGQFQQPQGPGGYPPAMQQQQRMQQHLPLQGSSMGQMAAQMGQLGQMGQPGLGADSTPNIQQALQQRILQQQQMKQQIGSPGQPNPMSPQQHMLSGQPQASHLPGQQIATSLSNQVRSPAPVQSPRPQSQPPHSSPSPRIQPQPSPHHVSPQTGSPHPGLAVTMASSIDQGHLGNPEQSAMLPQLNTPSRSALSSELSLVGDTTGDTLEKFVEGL
row,Substance,response (fold pull down)
1,GFP-FoxM1 full length (FL) T596A,8.4
2,GFP-FoxM1 full length (FL) S715A; S724A,9.7
3,GFP-FoxM1 full length (FL) S715D; S724D,31

# Molecular target: Retinoblastoma protein (Rb), endogenous (UniProt P06400)
# Assay: co-immunoprecipitation (IP GFP, western blot Rb), band intensity given
# Details: MCF7 cells
row,Substance,response
1,GFP-FoxM1 full length (FL) T596A,30.4
2,GFP-FoxM1 full length (FL) S715A; S724A,24.7
3,GFP-FoxM1 full length (FL) S715D; S724D,6.7

# Molecular target: CBP, endogenous (UniProt Q92793)
# Assay: co-immunoprecipitation (IP GFP, western blot CBP), band intensity given
# Details: MCF7 cells
row,Substance,response
1,GFP-FoxM1 full length (FL) T596A,5.1
2,GFP-FoxM1 full length (FL) S715A; S724A,6
3,GFP-FoxM1 full length (FL) S715D; S724D,21

# Molecular target: DNMT3b, endogenous (UniProt Q9UBC3)
# Assay: co-immunoprecipitation (IP GFP, western blot DNMT3b), band intensity given
# Details: MCF7 cells
row,Substance,response
1,GFP-FoxM1 full length (FL) T596A,112
2,GFP-FoxM1 full length (FL) S715A; S724A,90
3,GFP-FoxM1 full length (FL) S715D; S724D,32.3

# From article PMC5384083
